From patent US20210347908A1 (ELPISCIENCE SUZHOU BIOPHARMA, published 2021)
Like-named read-outs stand apart in the source and are kept apart here.

T1: full length C57BL/6 mouse SIRPα stably expressed on CHOK1 cells (mouse (C57BL/6), UniProt P97797 32-513)
T1 construct: whole, on cells; also called CHOK1-C57BL/6 mouse SIRPα-2.22 cells
T1 sequence (looked up): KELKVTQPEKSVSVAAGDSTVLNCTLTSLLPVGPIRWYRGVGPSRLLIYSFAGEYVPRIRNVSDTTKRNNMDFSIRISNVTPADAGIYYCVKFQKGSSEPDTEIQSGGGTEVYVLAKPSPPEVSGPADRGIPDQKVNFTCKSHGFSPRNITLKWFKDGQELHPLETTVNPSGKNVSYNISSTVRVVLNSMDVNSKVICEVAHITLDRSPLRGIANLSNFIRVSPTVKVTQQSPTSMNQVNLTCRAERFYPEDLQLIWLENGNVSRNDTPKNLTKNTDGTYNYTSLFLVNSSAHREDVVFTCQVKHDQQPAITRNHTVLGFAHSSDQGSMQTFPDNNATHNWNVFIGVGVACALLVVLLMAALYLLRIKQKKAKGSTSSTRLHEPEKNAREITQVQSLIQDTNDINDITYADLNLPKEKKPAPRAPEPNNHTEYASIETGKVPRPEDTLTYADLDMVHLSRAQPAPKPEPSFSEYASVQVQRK


How the values were obtained:
[1] = target: T2, full length human SIRPα v1 stably expressed on CHOK1 cells (human, UniProt P78324 31-504); test: FACS on CHOK1 cells
T2 construct: whole, on cells; also called CHOK1-human SIRPα v1-1B4 cells; CHOK1-human SIRPα v1

[2] = target: T3, biotin labeled soluble human SIRPα v1 ECD recombinant protein (human, UniProt P78324 31-373, biotin labeled); test: competitive ELISA, biotin-SIRPα v1 ECD to coated CD47 ECD
T3 construct: extracellular domain
Experimental: Competitive ELISA assay was used to determine whether the purified hybridoma antibodies can block CD47 and SIRPα interaction or CD47 and SIRPγ interaction. Briefly, for CD47 and SIRPα interaction blocking activity detection, antibody and biotin labeled soluble human SIRPα v1 ECD recombinant protein were co-incubated with ELISA microplate coated human CD47 ECD recombinant protein.
For CD47 and SIRPγ interaction blocking activity detection, antibody and biotin labeled soluble human CD47 ECD recombinant protein were co-incubated with ELISA microplate coated human SIRPγ ECD recombinant protein. After washing, horseradish peroxidase labeled streptavidin (HRP-SA, Sigma) was added and incubated at 37° C. for 1 hour. Then, 100 μl/well of TMB solution (Biotechnology) was added. After incubation for 15 minutes at room temperature, the reaction was stopped by the addition of 50 μl of 1N HCl. OD 450 nm was read. Blocking ratio and IC₅₀ was calculated. In comparison with other known anti-SIRPα antibodies, 022, 050, 055, and 074 cannot block CD47 and SIRPα interaction. In particular, all of the antibodies of the invention cannot block CD47 and SIRPγ interaction.

[3] = target: T4, Fc tagged human SIRPα v1 ECD recombinant protein (human, UniProt P78324 31-370); test: ELISA
T4 construct: range 1-370; cloned range M1-R370 includes the signal peptide; also called hSIRPα V1; not shown: human IgG Fc region (hFc) of the pCPC vector
Experimental: (§1) Binding specificity of the purified hybridoma antibodies against SIRP family members was detected by ELISA assay using recombinant proteins of Fc tagged human SIRPα v1 ECD, human SIRPα v2 ECD, human SIRPβ ECD and human SIRPγ ECD. Briefly the antibodies were incubated with ELISA microplate coated antigens at 37° C. for 1 hour. After washing, horseradish peroxidase (HRP) labeled anti-mouse or anti-human IgG 2nd Ab (Sigma) was added and incubated at 37° C. for 1 hour. Then, 100 μl/well of TMB solution (Biotechnology) was added. After incubation for 15 minutes at room temperature, the reaction was stopped by the addition of 50 μl of 1N HCl. OD 450 nm was read and EC₅₀ was calculated. Other than 060 and HEFLB, all of the antibodies as tested can bind with both human SIRPα v1 and SIRPα v2. 060 and HEFLB can bind with human SIRPα v1 but not v2. Other than 055, all of the antibodies as tested can bind with human SIRPβ. In comparison with other known anti-SIRPα antibodies, only 022, 035 and 050 can bind with human SIRPγ weakly.
(§2) The purified chimeric antibodies were applied for binding specificity analysis and species cross reactivity analysis (refer to methods described in Example 3.3 and 3.4). FIGS. 1A to 1D show binding specificity of anti-SIRPα chimeric antibodies against recombinant proteins of human SIRPα v1 ECD (A), human SIRPα v2 ECD (B), human SIRPβ ECD (C) and human SIRPγ ECD (D) as measured by ELISA analysis.

[4] = target: T4, Fc tagged human SIRPα v1 ECD …; test: ELISA; remark: listed apart in the source
Experimental: as §1, §2

[5] = target: T2, full length human SIRPα v1 stably …; test: FACS on CHOK1 cells; remark: listed apart in the source
Experimental: Species cross reactivity of the purified hybridoma antibodies against human, cyno and mouse SIRPα was determined by FACS assay using CHOK1-human SIRPα v1-1B4 cells, CHOK1-cyno SIRPα-2A2 cells, and CHOK1-C57BL/6 mouse SIRPα-2.22 cells, which stably expressing SIRPα protein. Briefly the antibodies were incubated with 2×10⁵ target cells at 4° C. for 1 hour. After washing, fluorescence labeled anti-mouse or anti-human IgG 2nd antibody (Life Technologies) was added and incubated at 4° C. for 1 hour. Geometric median fluorescence intensity was detected and EC₅₀ was calculated. In particular, it is noted, in contrast to the other antibodies tested in the same experiment, 060 cannot bind with cyno SIRPα and 035 has cross reactivity against C57BL/6 mouse SIRPα. […]

[6] = target: T2, full length human SIRPα v1 stably …; test: FACS on CHOK1 cells; remark: listed apart in the source
Experimental: (§3) Species cross reactivity of the purified hybridoma antibodies against human, cyno and mouse SIRPα was determined by FACS assay using CHOK1-human SIRPα v1-1B4 cells, CHOK1-cyno SIRPα-2A2 cells, and CHOK1-C57BL/6 mouse SIRPα-2.22 cells, which stably expressing SIRPα protein. Briefly the antibodies were incubated with 2×10⁵ target cells at 4° C. for 1 hour. After washing, fluorescence labeled anti-mouse or anti-human IgG 2nd antibody (Life Technologies) was added and incubated at 4° C. for 1 hour. Geometric median fluorescence intensity was detected and EC₅₀ was calculated. In particular, it is noted, in contrast to the other antibodies tested in the same experiment, 060 cannot bind with cyno SIRPα and 035 has cross reactivity against C57BL/6 mouse SIRPα.
as §2

[7] = target: T1, full length C57BL/6 mouse SIRPα stably …; test: FACS on CHOK1 cells
Experimental: as §3, §2

| Binder | EC50 [1] [nM] | IC50 [2] [nM] | EC50 [3] [nM] | EC50 [4] [nM] | EC50 [5] [nM] | EC50 [6] [nM] | binding result [7] |
| --- | --- | --- | --- | --- | --- | --- | --- |
| Antibody 035 (hybridoma antibody) (antibody, V domains shown, mouse hybridoma antibody) VH: QIQLVQSGPELRKPGETVKISCKASGYSFTNYAMNWVKQAPGKVLKWMGFINTYTGEPTYADDFKGRFAFSLETSASTAYLQINNLKNEDTATYFCTRTRGYYDFDGGAFDYWGQGTSLTVSS VL: DIVMTQSQKFMSTSIGDRVSVTCKASQNVGTHLAWYQQKPGQSPKALIFSASYRYIGVPDRFTGSGSGTDFTLTITNVQSEDLAEYFCQQYNTYPLTFGAGTKLELK | 0.7 | 4.9 | – | – | – | – | – |
| reference antibody HEFLB (antibody, V domains shown) VH: EVQLVQSGAEVKKPGESLRISCKASGYSFTSYWVHWVRQMPGKGLEWMGNIDPSDSDTHYSPSFQGHVTLSVDKSISTAYLQLSSLKASDTAMYYCVRGGTGTLAYFAYWGQGTLVTVSS VL: DVVMTQSPLSLPVTLGQPASISCRSSQSLVHSYGNTYLYWFQQRPGQSPRLLIYRVSNRFSGVPDRFSGSGSGTDFTLKISRVEAEDVGVYYCFQGTHVPYTFGGGTKVEIK | 11.2 | 0.5 | 0.11 | 0.11 | 11.2 | 11.2 | no binding (tested: 10 nM) |
| Antibody 060 (hybridoma antibody) (antibody, V domains shown, mouse hybridoma antibody) VH: QVQLKESGPGLVAPSESLSITCTVSGFSLTNYDISWIRQSPGKGLEWLGVIWTGGDTNFNSAFMSRLSISKDKSKSQVFLKLNSLQTDDTAIYYCVRVQYFGGSYGPMDYWGQGISVTVSS VL: DIQMTQASSYLSVSLGGRVTITCEASDHINDWLAWYQQTPGNAPRLLISGATSLETGVPSRFSGSGSGKDYTLSITSLQTEDIATYYCQQYWNTPLTFGAGTRLELK | 0.9 | > 1000 | – | – | – | – | – |
| Antibody 001 (hybridoma antibody) (antibody, V domains shown, mouse hybridoma antibody) VH: EVKLEESGGGLVQPGGSMKLSCVASGFTFRNYWMNWVRQSPERGLEWIAEISLKSNTYATHYAESVKGRFAISRDGSKSSFYLQMNDLRAEDTGIYYCTTFTKVVADWHLDVWGAGTTVTVSS VL: DVLMTQTPLSLPVSLGDQASISCRSSQNIVHSNGNTYLEWYLQKPGQSPKLLIYKVSNRFSGVPDRFSGSGSGTDFTLRISRVEAEDLGVYYCFQGSHVPFTFGSGTKLEIK | 1 | 1.4 | – | – | – | – | – |
| Antibody 002 (hybridoma antibody) (antibody, V domains shown, mouse hybridoma antibody) VH: EVKLEESGGGLVQPGGSMILSCVASGFTFRNYWMNWVRQSPERGLEWIAEITLKSNTYATHYAESVKGRFAISRDDSKSSFYLQMNDLRPEDTGIYYCTTFTKVVADWHLDVWGAGTTVTVSS VL: DVLMTQTPLSLPVSLGDQASISCRSSQNIVHSNGNTYLEWYLQKPGQSPKLLIYKISNRFSGVPDRFSGSGSGTDFTLRISRVEAEDLGVYYCFQGSHVPFTFGSGTKLEIQ | 1 | 1.3 | – | – | – | – | – |
| Antibody 032 (hybridoma antibody) (antibody, V domains shown, mouse hybridoma antibody) VH: EVRLEESGGGLVQPGGSMKLSCVVSGFTFRNYWMNWVRQSPERGLEWIAEITLKSNTYATHYAESVKGRFAISRDDSKSSFYLQMNDLRPEDTGIYYCTTFTKVVADWHLDVWGAGTTVTVSS VL: DVLMTQTPLSLPVNLGDQASISCRSSQNIVHSNGNTYLEWYLQKPGQSPKLLIYKVSNRFSGVPDRFSGSGSGTDFTLRISRVEAEDLGVYYCFQGSHVPFTFGSGTKLEIK | 0.4 | 0.2 | – | – | – | – | – |
| reference antibody 29-AM4-5 (antibody, V domains shown) VH: EVQLVESGGGLVQPGGSLRLSCAASGFNISYYFIHWVRQAPGKGLEWVASVYSSFGYTYYADSVKGRFTISADTSKNTAYLQMNSLRAEDTAVYYCARFTFPGLFDGFFGAYLGSLDYWGQGTLVTVSS VL: DIQMTQSPSSLSASVGDRVTITCRASQSVSSAVAWYQQKPGKAPKLLIYSASSLYSGVPSRFSGSRSGTDFTLTISSLQPEDFATYYCQQAVNWVGALVTFGQGTKVEIK | 13.6 | 1.4 | 0.11 | 0.11 | 13.6 | 13.6 | no binding (tested: 10 nM) |
| reference antibody KWAR23 (antibody, V domains shown) VH: EVQLQQSGAELVKPGASVKLSCTASGFNIKDYYIHWVQQRTEQGLEWIGRIDPEDGETKYAPKFQDKATITADTSSNTAYLHLSSLTSEDTAVYYCARWGAYWGQGTLVTVSS VL: QIVLTQSPAIMSASPGEKVTLTCSASSSVSSSYLYWYQQKPGSSPKLWIYSTSNLASGVPARFSGSGSGTSYSLTISSMEAEDAASYFCHQWSSYPRTFGAGTKLELK | 2.8 | 0.6 | 0.1 | 0.1 | 2.8 | 2.8 | no binding (tested: 10 nM) |
